The values that follow come from article PMC8990529.

In series [1] the test system is anti-G4 antibody clone 1H6 (mouse). As to the kind of experiment: fluorescence polarization. The following applies: FP: 50 mM Tris-HCl pH 7.5, 50 mM KCl, 1 mM MgCl2, 1 mM DTT, 0.1 mM EDTA, 10 nM oligo, 30 min RT, read at 25 C; Trp quenching: same buffer, 500 nM APE1, 20 C.
For series [2], the system named is G4-forming KRAS oligo (32R), unlabeled (DNA, G4) AGGGCGGTGTGGGAAGAGGGAAGAGGGGGAGG
As to the kind of experiment: UV-Vis absorption titration, Scatchard plot. The settings on record: 50 mM KCl; 10 mM Tris-HCl pH 7.5, 1 mM EDTA, RT; 4 µM TMPyP4, oligo 0-1.8 µM; specific site.

Series [3] deals with T1, APE1 WT (human, UniProt P27695 1-318). The series is described as follows: fluorescence polarization; 50 mM KCl, 1 mM MgCl2; no measurable affinity; FP: 50 mM Tris-HCl pH 7.5, 50 mM KCl, 1 mM MgCl2, 1 mM DTT, 0.1 mM EDTA, 10 nM oligo, 30 min RT, read at 25 C; Trp quenching: same buffer, 500 nM APE1, 20 C. The following applies: protein: recombinant; label: 5'-6-FAM; no parallel G4 by CD. In general terms: Fluorescence polarisation rises when a labelled molecule tumbles more slowly, as on binding a larger partner.

The target of series [4] is T1, APE1 WT. As to the kind of experiment: fluorescence polarization; 50 mM KCl, 1 mM MgCl2; FP: 50 mM Tris-HCl pH 7.5, 50 mM KCl, 1 mM MgCl2, 1 mM DTT, 0.1 mM EDTA, 10 nM oligo, 30 min RT, read at 25 C; Trp quenching: same buffer, 500 nM APE1, 20 C. The following applies: protein: recombinant; label: 5'-6-FAM; parallel G4 (CD), prefolded in 50 mM KCl.
The next series deals with APE1 H309A (human, UniProt P27695 1-318, H309A). The series is described as above. The following applies: protein: recombinant; label: 5'-6-FAM; parallel G4 (CD), prefolded in 50 mM KCl.
The next series addresses APE1 NΔ42 (human, UniProt P27695 43-318, del1-42). Described as above. The settings on record: protein: recombinant; label: 5'-6-FAM; parallel G4 (CD), prefolded in 50 mM KCl.
Another series deals with T2, GST-APE1 1-42 (human, UniProt P27695 1-42).
T2 chain: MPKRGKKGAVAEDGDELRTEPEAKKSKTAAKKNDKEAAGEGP
The series is described as follows: fluorescence polarization; 50 mM KCl, 1 mM MgCl2; no measurable affinity; FP: 50 mM Tris-HCl pH 7.5, 50 mM KCl, 1 mM MgCl2, 1 mM DTT, 0.1 mM EDTA, 10 nM oligo, 30 min RT, read at 25 C; Trp quenching: same buffer, 500 nM APE1, 20 C. The following applies: protein: recombinant; tags: GST; label: 5'-6-FAM; parallel G4 (CD), prefolded in 50 mM KCl.

The target in series [5] is T1, APE1 WT. The series is described as follows: tryptophan fluorescence quenching (Scatchard); 500 nM APE1, 50 mM KCl, 1 mM MgCl2, 20 C; FP: 50 mM Tris-HCl pH 7.5, 50 mM KCl, 1 mM MgCl2, 1 mM DTT, 0.1 mM EDTA, 10 nM oligo, 30 min RT, read at 25 C; Trp quenching: same buffer, 500 nM APE1, 20 C. The settings on record: protein: recombinant; parallel G4 (CD), prefolded in 50 mM KCl.

Series [6] concerns the target T1, APE1 WT. As to the kind of experiment: competition (fluorescence polarization; printed as EC50); 640 nM APE1, 10 nM 6-FAM G4-forming KRAS oligo as probe; FP: 50 mM Tris-HCl pH 7.5, 50 mM KCl, 1 mM MgCl2, 1 mM DTT, 0.1 mM EDTA, 10 nM oligo, 30 min RT, read at 25 C; Trp quenching: same buffer, 500 nM APE1, 20 C. The following applies: protein: recombinant; parallel G4 (CD), prefolded in 50 mM KCl.

T1 sequence (P27695 whole entry): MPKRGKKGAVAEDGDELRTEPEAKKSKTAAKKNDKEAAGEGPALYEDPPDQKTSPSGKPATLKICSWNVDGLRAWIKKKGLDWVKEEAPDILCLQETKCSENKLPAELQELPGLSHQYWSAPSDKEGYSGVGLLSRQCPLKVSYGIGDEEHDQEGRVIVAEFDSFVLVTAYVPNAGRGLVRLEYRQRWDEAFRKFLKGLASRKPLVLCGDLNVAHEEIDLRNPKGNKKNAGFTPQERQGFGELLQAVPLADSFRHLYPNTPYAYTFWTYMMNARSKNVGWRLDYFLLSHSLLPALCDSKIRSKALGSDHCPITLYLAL
Chain of APE1 NΔ42 (P27695 43-318, stated change not applied): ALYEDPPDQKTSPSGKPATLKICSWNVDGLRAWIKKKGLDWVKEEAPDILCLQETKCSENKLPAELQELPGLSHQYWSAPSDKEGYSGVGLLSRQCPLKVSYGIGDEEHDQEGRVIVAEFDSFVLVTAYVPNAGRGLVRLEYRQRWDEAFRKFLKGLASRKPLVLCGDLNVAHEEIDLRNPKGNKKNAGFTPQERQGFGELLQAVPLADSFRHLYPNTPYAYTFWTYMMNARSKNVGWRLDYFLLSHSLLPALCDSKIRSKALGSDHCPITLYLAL
Chain of APE1 H309A (P27695 whole entry H309A): as the sequence (P27695 whole entry) above, with H309A counted along it

As a reminder, the Kd is a measure of binding affinity in units of concentration. In [1], “AGGGCGGTGTGGGAAGAGGGAAGAGGGGGAGG [G4-forming KRAS oligo (32R), 6-FAM]” registered a dissociation constant Kd of 0.5 nM.

In [2], `C[n+]1ccc(-c2c3nc(c(-c4cc[n+](C)cc4)c4ccc([nH]4)c(-c4cc[n+](C)cc4)c4nc(c(-c5cc[n+](C)cc5)c5ccc2[nH]5)C=C4)C=C3)cc1` came in with an equilibrium dissociation constant (Kd) of 11 nM.

Take AGTTCGGTGTGTTAAGAGTTAAGAGTTGGAGG (ssDNA) [non-G4-forming KRAS oligo, 6-FAM]: the binding result in the series with APE1 WT [3] is on record as “no binding”.

Consider AGGGCGGTGTGGGAAGAGGGAAGAGGGGGAGG (structured_DNA) [G4-forming KRAS oligo (32R), 6-FAM], for which the dissociation constant Kd amounted to 31 ± 3 nM with APE1 WT [4], 152 ± 25 nM in the series with APE1 H309A and 313 ± 12 nM with APE1 NΔ42. In addition, the binding result with GST-APE1 1-42 is listed as “no binding”.

What is called IC50 is the midpoint of a concentration-inhibition curve. With AGGGCGGTGTGGGAAGAGGGAAGAGGGGGAGG (structured_DNA) [G4-forming KRAS oligo (32R), unlabeled], in the series with APE1 WT [5], the equilibrium dissociation constant (Kd) was found to be 12 nM. Further, the concentration for half-maximal inhibition (IC50) with APE1 WT [6] came to 2300 ± 1500 nM.
